Measurements reported in the RNAGym collection of RNA variant scans (doi:10.7554/elife.90254).

B1: LINE1-mini (parent)
chain: GGCAGAGCUCAACACAGCGUGGCAAAGUGGCUGUGGCUAGACUGCC

Variants of: B1
Test: self-cleavage, relative activity (ratio to wild type); higher = more cleavage; in vitro, sequencing; the parent is a self-cleaving ribozyme
GGCAGAGCUCAACACAGCGCGGCAAAGUGGCUGCGGCUAGACUGCC gave a self-cleavage of 0.18.
Work on GGCAGAGCUCAACACAGCGCGGCAAAGUGGCUGAGGCUAGACUGCC yielded a self-cleavage of 0.12.
Work on GGCAGAGCUCAACACAGCGCGGCAAAGUGGCUGGGGCUAGACUGCC yielded a self-cleavage of 0.22.
Work on GGCAGAGCUCAACACAGCGAGGCAAAGUGGCUGUGGCUAGACUCCC yielded a self-cleavage of 0.16.
Work on GGCAGAGCUCAACACAGCGAGGCAAAGUGGCUGUGGCUAGACUACC yielded a self-cleavage of 0.51.
GGCAGAGCUCAACACAGCGAGGCAAAGUGGCUGUGGCUAGACUUCC gave a self-cleavage of 0.2.
With GGCAGAGCUCAACACAGCGCGGCAAAGUGGCUGUGGCUAGACUGCC the self-cleavage was 0.66.
GGCAGAGCUCAACACAGCGGGGCAAAGUGGCUGUGGCUAGACUGCC gave a self-cleavage of 0.69.
GGCAGAGCUCAACACAGCGCGGCAUAGUGGCUGUGGCUAGACUGCC showed a self-cleavage of 1.02.
For GGCAGAGCUCAACACAGCGCGGCACAGUGGCUGUGGCUAGACUGCC, the self-cleavage was 0.75.
GGCAGAGCUCAACACAGCGCGGCAGAGUGGCUGUGGCUAGACUGCC showed a self-cleavage of 0.53.
Work on GGCAGAGCUCAACACAGCGAGGCAAAGUGGCGGUGGCUAGACUGCC yielded a self-cleavage of 0.08.
For GGCAGAGCUCAACACAGCGAGGCAAAGUGGCCGUGGCUAGACUGCC, the self-cleavage was 0.09.
GGCAGAGCUCAACACAGCGAGGCAAAGUGGCAGUGGCUAGACUGCC showed a self-cleavage of 0.06.
GGCAGAGCUCAACACAGCGCGGCAAGGUGGCUGUGGCUAGACUGCC gave a self-cleavage of 0.36.
GGCAGAGCUCAACACAGCGCGGCAAUGUGGCUGUGGCUAGACUGCC gave a self-cleavage of 0.68.
GGCAGAGCUCAACACAGCGCGGCAACGUGGCUGUGGCUAGACUGCC showed a self-cleavage of 0.36.
Variant GGCAGAGCUCAACACAGCGCGGCAAAGUGGCUGUGGCUAGACUGCG has a self-cleavage of 0.47.
GGCAGAGCUCAACACAGCGCGGCAAAGUGGCUGUGGCUAGACUGCU showed a self-cleavage of 0.42.
For GGCAGAGCUCAACACAGCGCGGCAAAGUGGCUGUGGCUAGACUGCA, the self-cleavage was 0.7.
Work on GGCAGAGCUCAACACAGCGCGGCAAAGUGGCUGUGACUAGACUGCC yielded a self-cleavage of 0.11.
With GGCAGAGCUCAACACAGCGCGGCAAAGUGGCUGUGCCUAGACUGCC the self-cleavage was 0.07.
With GGCAGAGCUCAACACAGCGCGGCAAAGUGGCUGUGUCUAGACUGCC the self-cleavage was 0.15.
For GGCAGAGCUCAACACAGCGCGGCAAAGUGGCUGUGGCUAGUCUGCC, the self-cleavage was 0.46.
In the case of GGCAGAGCUCAACACAGCGCGGCAAAGUGGCUGUGGCUAGGCUGCC, the self-cleavage is reported as 1.
Variant GGCAGAGCUCAACACAGCGCGGCAAAGUGGCUGUGGCUAGCCUGCC has a self-cleavage of 0.08.
GGCAGAGCUCAACACAGCGAGGCAAAGUGGCUGUGGCUAUACUGCC showed a self-cleavage of 0.08.
Work on GGCAGAGCUCAACACAGCGAGGCAAAGUGGCUGUGGCUAAACUGCC yielded a self-cleavage of 0.1.
For GGCAGAGCUCAACACAGCGAGGCAAAGUGGCUGUGGCUACACUGCC, the self-cleavage was 0.06.
With GGCAGAGCUCAACACAGCGCGGCAAAGUGGCUAUGGCUAGACUGCC the self-cleavage was 0.1.
For GGCAGAGCUCAACACAGCGCGGCAAAGUGGCUCUGGCUAGACUGCC, the self-cleavage was 0.07.
GGCAGAGCUCAACACAGCGCGGCAAAGUGGCUUUGGCUAGACUGCC showed a self-cleavage of 0.14.
Work on GGCAGAGCUCAACACAGCGAGGCAAAGUGGCUGUGACUAGACUGCC yielded a self-cleavage of 0.26.
GGCAGAGCUCAACACAGCGAGGCAAAGUGGCUGUGUCUAGACUGCC gave a self-cleavage of 0.05.
GGCAGAGCUCAACACAGCGAGGCAAAGUGGCUGUGCCUAGACUGCC showed a self-cleavage of 0.07.
Work on GGCAGAGCUCAACACAGCGCGGCAAAGUGGCUGUGGCUAGACUGUC yielded a self-cleavage of 1.12.
For GGCAGAGCUCAACACAGCGCGGCAAAGUGGCUGUGGCUAGACUGGC, the self-cleavage was 0.3.
GGCAGAGCUCAACACAGCGCGGCAAAGUGGCUGUGGCUAGACUGAC showed a self-cleavage of 0.34.
Work on GGCAGAGCUCAACACAGCGCGGCAAAGUGGCAGUGGCUAGACUGCC yielded a self-cleavage of 0.05.
With GGCAGAGCUCAACACAGCGCGGCAAAGUGGCGGUGGCUAGACUGCC the self-cleavage was 0.04.
Work on GGCAGAGCUCAACACAGCGCGGCAAAGUGGCCGUGGCUAGACUGCC yielded a self-cleavage of 0.05.
GGCAGAGCUCAACACAGCGCGGCAAAGCGGCUGUGGCUAGACUGCC gave a self-cleavage of 0.54.
GGCAGAGCUCAACACAGCGCGGCAAAGAGGCUGUGGCUAGACUGCC showed a self-cleavage of 0.93.
In the case of GGCAGAGCUCAACACAGCGCGGCAAAGGGGCUGUGGCUAGACUGCC, the self-cleavage is reported as 0.93.
Variant GGCAGAGCUCAACACAGCGCGGCAAAGUGGCUGUGGCGAGACUGCC has a self-cleavage of 0.01.
In the case of GGCAGAGCUCAACACAGCGCGGCAAAGUGGCUGUGGCAAGACUGCC, the self-cleavage is reported as 0.19.
GGCAGAGCUCAACACAGCGCGGCAAAGUGGCUGUGGCCAGACUGCC gave a self-cleavage of 0.22.
Work on GGCAGAGCUCAACACAGCGAGGCAAAGUGGCUAUGGCUAGACUGCC yielded a self-cleavage of 0.13.
GGCAGAGCUCAACACAGCGAGGCAAAGUGGCUUUGGCUAGACUGCC gave a self-cleavage of 0.07.
GGCAGAGCUCAACACAGCGAGGCAAAGUGGCUCUGGCUAGACUGCC gave a self-cleavage of 0.04.
Work on GGCAGAGCUCAACACAGCGCGGCAAAGUGGGUGUGGCUAGACUGCC yielded a self-cleavage of 0.07.
In the case of GGCAGAGCUCAACACAGCGCGGCAAAGUGGAUGUGGCUAGACUGCC, the self-cleavage is reported as 0.27.
Variant GGCAGAGCUCAACACAGCGCGGCAAAGUGGUUGUGGCUAGACUGCC has a self-cleavage of 0.39.
GGCAGAGCUCAACACAGCGCGGCAAAGUGGCUGUGGCUACACUGCC showed a self-cleavage of 0.06.
For GGCAGAGCUCAACACAGCGCGGCAAAGUGGCUGUGGCUAAACUGCC, the self-cleavage was 0.09.
In the case of GGCAGAGCUCAACACAGCGCGGCAAAGUGGCUGUGGCUAUACUGCC, the self-cleavage is reported as 0.1.
